According to PMC10958042:

B1: ATGL (PNPLA2, patatin-like phospholipase domain-containing protein 2), human, full length / G0S2 (G0/G1 switch protein 2), human (parent)
chain 1: MFPREKTWNISFAGCGFLGVYYVGVASCLREHAPFLVANATHIYGASAGALTATALVTGVCLGEAGAKFIEVSKEARKRFLGPLHPSFNLVKIIRSFLLKVLPADSHEHASGRLGISLTRVSDGENVIISHFNSKDELIQANVCSGFIPVYCGLIPPSLQGVRYVDGGISDNLPLYELKNTITVSPFSGESDICPQDSSTNIHELRVTNTSIQFNLRNLYRLSKALFPPEPLVLREMCKQGYRDGLRFLQRNGLLNRPNPLLALPPARPHGPEDKDQAVESAQAEDYSQLPGEDHILEHLPARLNEALLEACVEPTDLLTTLSNMLPVRLATAMMVPYTLPLESALSFTIRLLEWLPDVPEDIRWMKEQTGSICQYLVMRAKRKLGRHLPSRLPEQVELRRVQSLPSVPLSCAAYREALPGWMRNNLSLGDALAKWEECQRQLLLGLFCTNVAFPPEALRMRAPADPAPAPADPASPQHQLAGPAPLLSTPAPEARPVIGALGL
chain 2: METVQELIPLAKEMMAQKRKGKMVKLYVLGSVLALFGVVLGLMETVCSPFTAARRLRDQEAAVAELQAALERQALQKQALQEKGKQQDTVLGGRALSNRQHAS

Variants of: B1
Assay: LUMIER: Protein A-ATGL variant and firefly luciferase-partner co-expressed in HEK293T, lysates immunoprecipitated on IgG-coated plates, co-precipitated partner measured as luciferase luminescence
Conditions: with G0S2 (G0/G1 switch protein 2), transient co-transfection, IgG-coated LUMITRAC plates, 2 h at 4 °C, three PBS washes, Bright-Glo luciferase reagent, triplicates per assay, two …, scale: log2 fold change of co-immunoprecipitated luminescence relative to wild-type ATGL within each experiment

screen value (parent: 0.26, not graded)	screen value (parent: 0.56, not graded)	Variant
-0.0704	6.88e-05	chain 1 P103K
0.195	-0.175	chain 1 Q140K
0.0979	0.734	chain 1 Q140A
-2.73	-2.67	chain 1 N39E
-0.634	0.0997	chain 1 L178A
0.121	0.273	chain 1 R351L
0.411	0.335	chain 1 R163K
0.927	-0.0371	chain 1 R113K
-0.0286	-0.429	chain 1 R113L
-0.0501	0.0613	chain 1 S158E
-0.121	0.343	chain 1 S158A
-0.675	-0.33	chain 1 S87A
-0.559	-1.39	chain 1 S87E
-2.09	-2.9	chain 1 V328A
-0.0587	-0.569	chain 1 R95L
0.105	0.0501	chain 1 R95K
-0.413	-0.671	chain 1 L159A
-2.65	-2.45	chain 1 L102K
-0.622	-0.673	chain 1 L261E
-0.922	-1.29	chain 1 S106K
-0.894	-0.783	chain 1 P86K
-1.96	-1.94	chain 1 N180L
-0.556	-0.22	chain 1 R329E
-1.36	-1.64	chain 1 P258L
-0.00445	-0.27	chain 1 Y415A
0.0368	0.0587	chain 1 T41A
-1.32	-1.71	chain 1 Q396A
0.199	0.376	chain 1 V127L
-2.18	-2.45	chain 1 P156K
